Here are results for one substance from article PMC6395645.

In experiment [1] the target is soluble type-I collagen (UniProt P02454). Nature of the experiment: ELISA; collagen-binding ELISA; soluble type-I collagen immobilised on plates, salivary gland homogenates of 20 TG mosquitoes (hold mDsRed-8H7scFv) applied 1 h at room temperature; quantified against Trx-AAPPex1-4. (In general: An ELISA detects its analyte on a solid surface through an enzyme-linked reagent.)

The target is the same in experiment [2]. Nature of the experiment: ELISA; collagen-binding ELISA; soluble type-I collagen immobilised on plates (7.5 ug/ml, 100 ul/well), saliva of 20 WT mosquitoes applied 1 h at room temperature; quantified against Trx-AAPPex1-4.
Experiment [3] shares this target. Briefly: ELISA; collagen-binding ELISA; soluble type-I collagen immobilised on plates, salivary gland homogenates of 20 WT mosquitoes applied 1 h at room temperature; quantified against Trx-AAPPex1-4.
The target is the same in experiment [4]. Briefly: ELISA; collagen-binding ELISA; soluble type-I collagen immobilised on plates, saliva of 20 TG mosquitoes (holds mDsRed-8H7scFv) applied 1 h at room temperature; quantified against Trx-AAPPex1-4.

soluble type-I collagen, sequence (P02454 152-1207, chain 1 of 2): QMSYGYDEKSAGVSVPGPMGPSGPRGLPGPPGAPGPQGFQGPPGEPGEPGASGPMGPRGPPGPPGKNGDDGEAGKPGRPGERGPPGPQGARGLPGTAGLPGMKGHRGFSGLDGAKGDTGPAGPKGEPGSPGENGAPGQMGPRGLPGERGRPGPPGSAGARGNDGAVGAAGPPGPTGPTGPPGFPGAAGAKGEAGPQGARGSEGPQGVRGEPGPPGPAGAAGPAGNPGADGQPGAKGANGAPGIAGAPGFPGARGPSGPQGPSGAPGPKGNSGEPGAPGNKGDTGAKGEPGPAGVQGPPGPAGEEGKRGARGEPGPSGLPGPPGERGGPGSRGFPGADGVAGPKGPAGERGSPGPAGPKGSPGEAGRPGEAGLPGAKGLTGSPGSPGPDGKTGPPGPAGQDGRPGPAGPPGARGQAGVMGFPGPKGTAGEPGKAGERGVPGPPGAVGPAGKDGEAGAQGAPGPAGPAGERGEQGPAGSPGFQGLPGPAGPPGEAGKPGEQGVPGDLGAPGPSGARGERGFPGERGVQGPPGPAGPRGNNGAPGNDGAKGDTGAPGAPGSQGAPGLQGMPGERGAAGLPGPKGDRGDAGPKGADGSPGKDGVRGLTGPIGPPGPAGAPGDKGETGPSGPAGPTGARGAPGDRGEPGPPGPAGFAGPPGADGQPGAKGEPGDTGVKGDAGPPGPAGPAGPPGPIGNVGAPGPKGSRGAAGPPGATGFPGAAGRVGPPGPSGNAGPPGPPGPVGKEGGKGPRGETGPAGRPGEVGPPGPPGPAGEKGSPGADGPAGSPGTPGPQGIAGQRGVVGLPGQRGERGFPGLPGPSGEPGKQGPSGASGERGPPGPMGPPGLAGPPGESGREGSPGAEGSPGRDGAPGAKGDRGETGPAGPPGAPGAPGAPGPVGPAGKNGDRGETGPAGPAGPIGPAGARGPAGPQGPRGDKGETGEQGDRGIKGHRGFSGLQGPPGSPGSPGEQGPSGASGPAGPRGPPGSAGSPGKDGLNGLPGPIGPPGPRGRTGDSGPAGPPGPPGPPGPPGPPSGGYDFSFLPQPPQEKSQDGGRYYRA
soluble type-I collagen, sequence (P02466 86-1125, chain 2 of 2, further chain): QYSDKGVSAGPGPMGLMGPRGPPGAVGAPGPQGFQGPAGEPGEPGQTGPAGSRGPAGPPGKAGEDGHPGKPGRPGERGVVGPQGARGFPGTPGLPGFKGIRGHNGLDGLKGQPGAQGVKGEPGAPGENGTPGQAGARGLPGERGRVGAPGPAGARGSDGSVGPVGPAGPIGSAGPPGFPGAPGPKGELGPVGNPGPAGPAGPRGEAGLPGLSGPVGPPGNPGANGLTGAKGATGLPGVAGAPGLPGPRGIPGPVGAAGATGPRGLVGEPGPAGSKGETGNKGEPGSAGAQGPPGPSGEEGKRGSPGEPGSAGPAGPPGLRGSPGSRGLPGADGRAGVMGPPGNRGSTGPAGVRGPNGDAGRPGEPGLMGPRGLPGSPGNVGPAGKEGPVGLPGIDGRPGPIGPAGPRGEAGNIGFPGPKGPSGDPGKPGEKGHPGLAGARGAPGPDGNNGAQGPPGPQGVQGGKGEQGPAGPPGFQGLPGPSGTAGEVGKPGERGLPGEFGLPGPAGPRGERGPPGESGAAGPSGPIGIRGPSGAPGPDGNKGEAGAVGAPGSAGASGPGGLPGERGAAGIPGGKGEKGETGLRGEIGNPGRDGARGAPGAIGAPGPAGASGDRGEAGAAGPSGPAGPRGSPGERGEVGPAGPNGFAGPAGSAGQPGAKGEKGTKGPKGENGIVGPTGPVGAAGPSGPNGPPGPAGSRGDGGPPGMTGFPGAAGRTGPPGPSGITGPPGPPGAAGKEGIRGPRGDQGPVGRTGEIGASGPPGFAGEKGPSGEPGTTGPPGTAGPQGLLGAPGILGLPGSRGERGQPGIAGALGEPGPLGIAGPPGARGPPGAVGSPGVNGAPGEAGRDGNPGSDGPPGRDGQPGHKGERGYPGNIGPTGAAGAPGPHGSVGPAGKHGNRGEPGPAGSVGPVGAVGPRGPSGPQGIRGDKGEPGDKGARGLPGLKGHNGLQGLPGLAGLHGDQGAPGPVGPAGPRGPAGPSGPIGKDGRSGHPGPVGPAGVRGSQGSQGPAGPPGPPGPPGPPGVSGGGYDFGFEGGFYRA

Turning to “Anopheline antiplatelet protein (AAPP) (from UniProt Q7YT37 20-269) (natural protein)”, in the experiment with soluble type-I collagen [1], the amount of AAPP capable of binding to collagen, with mDsRed-8H7scFv present (salivary glands of 20 TG-03 mosquitoes) was 11.4 ng; the amount of AAPP capable of binding to collagen, with mDsRed-8H7scFv present (salivary glands of 20 TG-30 mosquitoes) worked out at 9.95 ng; the amount of AAPP capable of binding to collagen, with mDsRed-8H7scFv present (salivary glands of 20 TG-37 mosquitoes) was determined as 10.5 ng. The amount of AAPP capable of binding to collagen (saliva of 20 WT mosquitoes) in the experiment with soluble type-I collagen [2] is 28.4 ng. Besides, the amount of AAPP capable of binding to collagen (salivary glands of 20 WT mosquitoes) in the experiment with soluble type-I collagen [3] came to 233 ng. The amount of AAPP capable of binding to collagen, with mDsRed-8H7scFv present (saliva of 20 mosquitoes of each TG line) in the experiment with soluble type-I collagen [4] was < 0.069 ng.
